Assay results reported in article PMC9584953.
Substitutions are numbered along the chain they refer to.

How the values were obtained:
Assay in all cases: EMSA
Conditions in all cases: EMSA: 50 mM Tris-HCl pH 7.5, 50 mM KCl, 5 mM CaCl2, 5% glycerol, 0.0025% NP-40, 0.8 ug poly(dI-dC), room temperature 30 min
[1] = system: T1, OmpR I138D I138D (Salmonella (strain not given in material)), ORF:d8521a76
T1 sequence: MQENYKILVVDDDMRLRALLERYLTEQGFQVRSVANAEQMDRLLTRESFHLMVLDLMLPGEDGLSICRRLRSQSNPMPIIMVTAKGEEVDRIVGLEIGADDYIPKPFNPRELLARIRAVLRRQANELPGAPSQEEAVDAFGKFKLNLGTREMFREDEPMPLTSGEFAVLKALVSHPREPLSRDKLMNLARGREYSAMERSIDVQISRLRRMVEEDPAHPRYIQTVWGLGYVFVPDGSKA

[2] = system: T2, OmpR D55A D55A (Salmonella (strain not given in material)), ORF:d8521a76
T2 sequence: T1 sequence with D55A, D138I

[3] = system: T3, OmpR A136D A136D (Salmonella (strain not given in material)), ORF:d8521a76
T3 sequence: T1 sequence with A136D, D138I

[4] = system: T4, OmpR Y230D Y230D (Salmonella (strain not given in material)), ORF:d8521a76
T4 sequence: T1 sequence with D138I, Y230D

[5] = system: T5, OmpR R182D R182D (Salmonella (strain not given in material)), ORF:d8521a76
T5 sequence: T1 sequence with D138I, R182D

CATCTTTCCATTCAAACTAACGTTTCGCTACCGTGAAAGTGCTACAAAGATAAAGATTTGGTTTCAAAAGGAAAT (double strand) [PompF (F2 and F3 OmpR sites)]
binding [1]: binds
binding [2]: binds more weakly
binding [3]: binds
binding [4]: binds
binding [5]: binds
